Results as given in EP3741773A1.

Target: cetuximab
Experiment: SPR, immobilized cetuximab IgG (Figure 12)

avidin saturated with biotinylated meditope, sequence (P02701 25-152): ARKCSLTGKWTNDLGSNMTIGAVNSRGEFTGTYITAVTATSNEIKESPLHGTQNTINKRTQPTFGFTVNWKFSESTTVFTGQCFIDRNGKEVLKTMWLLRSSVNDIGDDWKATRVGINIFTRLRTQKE

“avidin saturated with biotinylated meditope (from UniProt P02701 25-152)” gave a fold reduction of the off-rate against the monovalent meditope of over 36 fold.
